Sequences and labels used below:
B1: TLE6 (parent)
chain: FWHDTLTEQLWRIFAGVHDEKAKP

From the supplement of paper PMC10567573 come the findings set out here.
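Also: lentivirally expressed fusions sorted by FACS into six bins by GFP to DsRed ratio, PSI derived from sequencing read proportions per bin multiplied by bin number.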

The variants in the series derive from B1. Nature of the series: protein stability index of a GFP-peptide fusion (GPS, HEK-293T) (PSI 1-6); higher = more stable. The conditions noted are these: c terminus: a fixed tail appended.
On to FWHDTLTEQLWRIFAGVHDEEAKP [K21E], for which the protein stability index is 2.08.

In the case of FWHDTLTEQLWRIFAGVHDEIAKP [K21I], the protein stability index turned out to be 3.25.

For the variant FWHDTLTEQLWRIFAGVHDEVAKP [K21V], the protein stability index is 3.44.

With FWHDTLTEQLWRIFAGVHDEQAKP [K21Q], the protein stability index came to 1.81.

On to FWHDTLTEQLWRIFAGVHDEFAKP [K21F], for which the protein stability index came to 2.72.

For the variant FWHDTLTEQLWRIFAGVHDESAKP [K21S], the protein stability index was determined as 1.6.

On to FWHDTLTEQLWRIFAGVHDEPAKP [K21P], for which the protein stability index worked out at 1.47.

In the case of FWHDTLTEQLWRIFAGVHDEDAKP [K21D], the protein stability index turned out to be 2.6.

FWHDTLTEQLWRIFAGVHDELAKP [K21L]: the protein stability index was determined as 2.2.

On to FWHDTLTEQLWRIFAGVHDECAKP [K21C], for which the protein stability index is 1.51.

As for FWHDTLTEQLWRIFAGVHDENAKP [K21N], the protein stability index is 2.2.

For the variant FWHDTLTEQLWRIFAGVHDEWAKP [K21W], the protein stability index is 2.44.

For FWHDTLTEQLWRIFAGVHDEMAKP [K21M], the protein stability index stood at 2.85.

Take FWHDTLTEQLWRIFAGVHDEHAKP [K21H]: the protein stability index stood at 1.69.

On to FWHDTLTEQLWRIFAGVHDEAAKP [K21A], for which the protein stability index amounted to 1.69.

Take FWHDTLTEQLWRIFAGVHDERAKP [K21R]: the protein stability index came to 1.31.

On to FWHDTLTEQLWRIFAGVHDETAKP [K21T], for which the protein stability index turned out to be 1.85.

For the variant FWHDTLTEQLWRIFRGVHDEKAKP [A15R], the protein stability index was found to be 1.94.

Regarding FWHDTLTEQLWRIFDGVHDEKAKP [A15D], the protein stability index stood at 1.86.

Take FWHDTLTEQLWRIFIGVHDEKAKP [A15I]: the protein stability index was 1.79.

For FWHDTLTEQLWRIFVGVHDEKAKP [A15V], the protein stability index was determined as 2.82.

Consider FWHDTLTEQLWRIFCGVHDEKAKP [A15C], for which the protein stability index amounted to 2.23.

Consider FWHDTLTEQLWRIFKGVHDEKAKP [A15K], for which the protein stability index was 1.81.

Regarding FWHDTLTEQLWRIFNGVHDEKAKP [A15N], the protein stability index turned out to be 1.68.

FWHDTLTEQLWRIFHGVHDEKAKP [A15H]: the protein stability index was 1.86.

With FWHDTLTEQLWRIFFGVHDEKAKP [A15F], the protein stability index stood at 1.73.

On to FWHDTLTEQLWRIFMGVHDEKAKP [A15M], for which the protein stability index stood at 1.39.

As to FWHDTLTEQLWRIFYGVHDEKAKP [A15Y], the protein stability index is 1.62.

Consider FWHDTLTEQLWRIFGGVHDEKAKP [A15G], for which the protein stability index came out at 2.02.

On to FWHDTLTEQLWRIFEGVHDEKAKP [A15E], for which the protein stability index worked out at 1.77.

For the variant FWHDTLTEQLWRIFLGVHDEKAKP [A15L], the protein stability index stood at 2.41.

As to FWHDTLTEQLWRIFSGVHDEKAKP [A15S], the protein stability index came out at 2.43.

As for FWHDTLTEQLWRIFQGVHDEKAKP [A15Q], the protein stability index amounted to 1.61.

For FWHDTLTEQLWRIFPGVHDEKAKP [A15P], the protein stability index came to 2.23.

With FWHDTLTEQLWRIFTGVHDEKAKP [A15T], the protein stability index is 1.89.

Take FWHDTLTEQLWRIFAFVHDEKAKP [G16F]: the protein stability index turned out to be 1.72.

As for FWHDTLTEQLWRIFAYVHDEKAKP [G16Y], the protein stability index turned out to be 2.51.

As to FWHDTLTEQLWRIFALVHDEKAKP [G16L], the protein stability index turned out to be 1.64.

Consider FWHDTLTEQLWRIFAQVHDEKAKP [G16Q], for which the protein stability index was determined as 1.89.

As to FWHDTLTEQLWRIFAEVHDEKAKP [G16E], the protein stability index came to 1.9.

For FWHDTLTEQLWRIFACVHDEKAKP [G16C], the protein stability index was 1.83.

With FWHDTLTEQLWRIFAHVHDEKAKP [G16H], the protein stability index turned out to be 2.26.

Turning to FWHDTLTEQLWRIFAKVHDEKAKP [G16K], the protein stability index came out at 2.12.

As to FWHDTLTEQLWRIFARVHDEKAKP [G16R], the protein stability index was 1.6.

With FWHDTLTEQLWRIFANVHDEKAKP [G16N], the protein stability index was determined as 2.07.

In the case of FWHDTLTEQLWRIFASVHDEKAKP [G16S], the protein stability index was 1.82.

FWHDTLTEQLWRIFAVVHDEKAKP [G16V]: the protein stability index was 2.85.

Regarding FWHDTLTEQLWRIFAMVHDEKAKP [G16M], the protein stability index stood at 2.14.

For FWHDTLTEQLWRIFAPVHDEKAKP [G16P], the protein stability index amounted to 3.4.

Regarding FWHDTLTEQLWRIFAWVHDEKAKP [G16W], the protein stability index turned out to be 2.23.

In the case of FWHDTLTEQLWRIFADVHDEKAKP [G16D], the protein stability index was 2.06.

Consider FWHDTLTEQLWRIFATVHDEKAKP [G16T], for which the protein stability index turned out to be 1.62.

On to FWHDTLTEQLWRIFAIVHDEKAKP [G16I], for which the protein stability index was found to be 1.89.

As to FWHDTLTEQLWRIFAAVHDEKAKP [G16A], the protein stability index was found to be 1.88.

As to FWHDTLTEQLWYIFAGVHDEKAKP [R12Y], the protein stability index was 1.69.

FWHDTLTEQLWAIFAGVHDEKAKP [R12A]: the protein stability index was determined as 1.91.

FWHDTLTEQLWCIFAGVHDEKAKP [R12C]: the protein stability index is 2.88.

In the case of FWHDTLTEQLWIIFAGVHDEKAKP [R12I], the protein stability index was 2.73.

Take FWHDTLTEQLWDIFAGVHDEKAKP [R12D]: the protein stability index is 1.94.

For FWHDTLTEQLWMIFAGVHDEKAKP [R12M], the protein stability index was 1.52.

For FWHDTLTEQLWGIFAGVHDEKAKP [R12G], the protein stability index is 2.23.

Regarding FWHDTLTEQLWFIFAGVHDEKAKP [R12F], the protein stability index came to 2.21.

As to FWHDTLTEQLWWIFAGVHDEKAKP [R12W], the protein stability index is 2.47.

Take FWHDTLTEQLWNIFAGVHDEKAKP [R12N]: the protein stability index is 2.2.

As for FWHDTLTEQLWLIFAGVHDEKAKP [R12L], the protein stability index is 1.91.

Regarding FWHDTLTEQLWPIFAGVHDEKAKP [R12P], the protein stability index was 2.43.

As to FWHDTLTEQLWTIFAGVHDEKAKP [R12T], the protein stability index was 2.02.

On to FWHDTLTEQLWEIFAGVHDEKAKP [R12E], for which the protein stability index worked out at 1.63.

For the variant FWHDTLTEQLWSIFAGVHDEKAKP [R12S], the protein stability index came out at 2.06.

With FWHDTLTEQLWHIFAGVHDEKAKP [R12H], the protein stability index was 2.11.

For FWHDTLTEQLWKIFAGVHDEKAKP [R12K], the protein stability index was determined as 2.17.

For the variant FWHDTLTEQLWVIFAGVHDEKAKP [R12V], the protein stability index turned out to be 1.71.

As to FWHDTLTEQLWQIFAGVHDEKAKP [R12Q], the protein stability index was 1.94.

For the variant FWHDTLTEQLWRIFAGVDDEKAKP [H18D], the protein stability index is 2.1.

Regarding FWHDTLTEQLWRIFAGVIDEKAKP [H18I], the protein stability index amounted to 2.92.

With FWHDTLTEQLWRIFAGVMDEKAKP [H18M], the protein stability index turned out to be 2.48.

Turning to FWHDTLTEQLWRIFAGVFDEKAKP [H18F], the protein stability index is 1.92.

For FWHDTLTEQLWRIFAGVSDEKAKP [H18S], the protein stability index was 2.72.

FWHDTLTEQLWRIFAGVEDEKAKP [H18E]: the protein stability index was found to be 2.07.

Consider FWHDTLTEQLWRIFAGVTDEKAKP [H18T], for which the protein stability index worked out at 2.13.

Turning to FWHDTLTEQLWRIFAGVWDEKAKP [H18W], the protein stability index amounted to 1.36.

Regarding FWHDTLTEQLWRIFAGVPDEKAKP [H18P], the protein stability index stood at 1.48.

As to FWHDTLTEQLWRIFAGVLDEKAKP [H18L], the protein stability index is 2.67.

Turning to FWHDTLTEQLWRIFAGVQDEKAKP [H18Q], the protein stability index amounted to 1.5.

Turning to FWHDTLTEQLWRIFAGVADEKAKP [H18A], the protein stability index turned out to be 2.38.

In the case of FWHDTLTEQLWRIFAGVVDEKAKP [H18V], the protein stability index amounted to 1.61.

With FWHDTLTEQLWRIFAGVGDEKAKP [H18G], the protein stability index is 1.79.

For the variant FWHDTLTEQLWRIFAGVKDEKAKP [H18K], the protein stability index was 1.53.

For the variant FWHDTLTEQLWRIFAGVCDEKAKP [H18C], the protein stability index turned out to be 2.24.

FWHDTLTEQLWRIFAGVNDEKAKP [H18N]: the protein stability index was determined as 2.09.

For the variant FWHDTLTEQLWRIFAGVYDEKAKP [H18Y], the protein stability index came to 2.35.

FWHDTLTEQLWRIFAGVRDEKAKP [H18R]: the protein stability index was 1.84.

FWHDTLTEQLVRIFAGVHDEKAKP [W11V]: the protein stability index amounted to 1.56.

With FWHDTLTEQLYRIFAGVHDEKAKP [W11Y], the protein stability index was 2.87.
